Laboratory results as given in the supplement of paper PMC11246515.
± gives the standard deviation of the averaged measurements.

Test: total protein half-life in vivo (active degradation + dilution); higher = more stable protein
[1] = E. coli NCM3722 delta-clpP delta-lon delta-hslV, growth: N-lim chemostat, doubling time 6 h
[2] = E. coli NCM3722 delta-clpP, growth: N-lim chemostat, doubling time 6 h
[3] = E. coli NCM3722 delta-hslV, growth: N-lim chemostat, doubling time 6 h
[4] = E. coli NCM3722 delta-lon, growth: N-lim chemostat, doubling time 6 h
[5] = E. coli NCM3722 delta-smpB, growth: N-lim chemostat, doubling time 6 h
[6] = wild type E. coli NCM3722, growth: C-lim chemostat, doubling time 3 h
[7] = wild type E. coli NCM3722, growth: C-lim chemostat, doubling time 12 h
[8] = wild type E. coli NCM3722, growth: N-lim chemostat, doubling time 6 h
[9] = wild type E. coli NCM3722, growth: N-lim chemostat, doubling time 12 h
[10] = wild type E. coli NCM3722, growth: P-lim chemostat, doubling time 6 h
[11] = wild type E. coli NCM3722, growth: C-lim chemostat, doubling time 6 h
[12] = wild type E. coli NCM3722, growth: P-lim chemostat, doubling time 12 h

Sequence	total protein half-life in vivo [1] [h]	total protein half-life in vivo [2] [h]	total protein half-life in vivo [3] [h]	total protein half-life in vivo [4] [h]	total protein half-life in vivo [5] [h]	total protein half-life in vivo [6] [h]	total protein half-life in vivo [7] [h]	total protein half-life in vivo [8] [h]	total protein half-life in vivo [9] [h]	total protein half-life in vivo [10] [h]	total protein half-life in vivo [11] [h]	total protein half-life in vivo [12] [h]
MSTIVIFLAALLACSLLAGWLIKVRSRRRQLPWTNAFADAQTRKLTPEERSAVENYLESLTQVLQVPGPTGASAAPISLALNAESNNVMMLTHAITRYGISTDDPNKWRYYLDSVEVHLPPFWEQYINDENTVELIHTDSLPLVISLNGHTLQEYMQETRSYALQPVPSTQASIRGEESEQIELLNIRKETHEEYALSRPRGLREALLIVASFLMFFFCLITPDVFVPWLAGGALLLLGAGLWGLFAPPAKSSLREIHCLRGTPRRWGLFGENDQEQINNISLGIIDLVYPAHWQPYIAQDLGQQTDIDIYLDRHVVRQGRYLSLHDEVKNFPLQHWLRSTIIAAGSLLVLFMLLFWIPLDMPLKFTLSWMKGAQTIEATSVKQLADAGVRVGDTLRISGTGMCNIRTSGTWSAKTNSPFLPFDCSQIIWNDARSLPLPESELVNKATALTEAVNRQLHPKPEDESRVSASLRSAIQKSGMVLLDDFGDIVLKTADLCSAKDDCVRLKNALVNLGNSKDWDALVKRANAGKLDGVNVLLRPVSAESLDNLVATSTAPFITHETARAAQSLNSPAPGGFLIVSDEGSDFVDQPWPSASLYDYPPQEQWNAFQKLAQMLMHTPFNAEGIVTKIFTDANGTQHIGLHPIPDRSGLWRYLSTTLLLLTMLGSAIYNGVQAWRRYQRHRTRMMEIQAYYESCLNPQLITPSESLIE	7.278 ± 0.055	6.37 ± 0.32	6.48 ± 0.55	6.72 ± 0.7	5.73 ± 0.16	3.25 ± 0.17	13.9 ± 1.9	6.06 ± 0.22	11.6 ± 1.6	6.84 ± 0.8		
MSTQEATLQQPLLQAIDLKKHYPVKKGMFAPERLVKALDGVSFNLERGKTLAVVGESGCGKSTLGRLLTMIEMPTGGELYYQGQDLLKHDPQAQKLRRQKIQIVFQNPYGSLNPRKKVGQILEEPLLINTSLSKEQRREKALSMMAKVGLKTEHYDRYPHMFSGGQRQRIAIARGLMLDPDVVIADEPVSALDVSVRAQVLNLMMDLQQELGLSYVFISHDLSVVEHIADEVMVMYLGRCVEKGTKDQIFNNPRHPYTQALLSATPRLNPDDRRERIKLSGELPSPLNPPPGCAFNARCRRRFGPCTQLQPQLKDYGGQLVACFAVDQDENPQR	6.25 ± 0.25	5.92 ± 0.29	6.41 ± 0.085	6.11 ± 0.94	5.605 ± 0.031	2.88 ± 0.33	11.6 ± 0.25	6.08 ± 0.62	13.1 ± 0.71	6.16 ± 0.27	6.28 ± 0.43	13.1 ± 0.21
MSTRTPSSSSSRLMLTIGLCFLVALMEGLDLQAAGIAAGGIAQAFALDKMQMGWIFSAGILGLLPGALVGGMLADRYGRKRILIGSVALFGLFSLATAIAWDFPSLVFARLMTGVGLGAALPNLIALTSEAAGPRFRGTAVSLMYCGVPIGAALAATLGFAGANLAWQTVFWVGGVVPLILVPLLMRWLPESAVFAGEKQSAPPLRALFAPETATATLLLWLCYFFTLLVVYMLINWLPLLLVEQGFQPSQAAGVMFALQMGAASGTLMLGALMDKLRPVTMSLLIYSGMLASLLALGTVSSFNGMLLAGFVAGLFATGGQSVLYALAPLFYSSQIRATGVGTAVAVGRLGAMSGPLLAGKMLALGTGTVGVMAASAPGILVAGLAVFILMSRRSRIQPCADA							5.24					
MSTTNHDHHIYVLMGVSGSGKSAVASEVAHQLHAAFLDGDFLHPRRNIEKMASGEPLNDDDRKPWLQALNDAAFAMQRTNKVSLIVCSALKKHYRDLLREGNPNLSFIYLKGDFDVIESRLKARKGHFFKTQMLVTQFETLQEPGADETDVLVVDIDQPLEGVVASTIEVIKKGK	5.07 ± 0.67	4.474 ± 0.042	4.01		4.121 ± 0.011	3.02 ± 0.08	8.67	3.92 ± 0.44	6.38 ± 0.14	4.1	> 8	9.14 ± 0.42
MSTTWFVGADWLAEHIDDPEIQIIDARMASPGQEDRNVAQEYLNGHIPGAVFFDIEALSDHTSPLPHMLPRPETFAVAMRELGVNQDKHLIVYDEGNLFSAPRAWWMLRTFGVEKVSILGGGLAGWQRDDLLLEEGAVELPEGEFNAAFNPEAVVKVTDVLLASHENTAQIIDARPAARFNAEVDEPRPGLRRGHIPGALNVPWTELVREGELKTTDELDAIFFGRGVSYDKPIIVSCGSGVTAAVVLLALATLDVPNVKLYDGAWSEWGARADLPVEPVK	4.69 ± 0.49	3.98 ± 0.5	4.63 ± 0.66	6.38 ± 2	3.69 ± 0.23	3.13 ± 0.094	9.46 ± 0.71	4.51 ± 0.59	6.87 ± 0.19	5.58 ± 0.12	5.74 ± 0.92	11 ± 0.56
MSVFSLKIDIADNKFFNGETSPLFSQSQAKLARQFHQKIAGYRPTPLCALDDLANLFGVKKILVKDESKRFGLNAFKMLGGAYAIAQLLCEKYHLDIETLSFEHLKNAIGEKMTFATTTDGNHGRGVAWAAQQLGQNAVIYMPKGSAQERVDAILNLGAECIVTDMNYDDTVRLTMQHAQQHGWEVVQDTAWEGYTKIPTWIMQGYATLADEAVEQMREMGVTPTHVLLQAGVGAMAGGVLGYLVDVYSPQNLHSIIVEPDKADCIYRSGVKGDIVNVGGDMATIMAGLACGEPNPLGWEILRNCATQFISCQDSVAALGMRVLGNPYGNDPRIISGESGAVGLGVLAAVHYHPQRQSLMEKLALNKDAVVLVISTEGDTDVKHYREVVWEGKHAVAP											4.2	
MSVIETATVPLAQQQADALLNVKDLRVTFSTPDGDVTAVNDLNFSLRAGETLGIVGESGSGKSQTAFALMGLLAANGRIGGSATFNGREILNLPEHELNKLRAEQISMIFQDPMTSLNPYMRVGEQLMEVLMLHKNMSKAEAFEESVRMLDAVKMPEARKRMKMYPHEFSGGMRQRVMIAMALLCRPKLLIADEPTTALDVTVQAQIMTLLNELKREFNTAIIMITHDLVVVAGICDKVLVMYAGRTMEYGNARDVFYQPVHPYSIGLLNAVPRLDAEGETMLTIPGNPPNLLRLPKGCPFQPRCPHAMEICSSAPPLEEFTPGRLRACFKPVEELL	5.379 ± 0.026	5.7109 ± 0.0028	5.53 ± 0.098	4.81 ± 0.18	5.34 ± 0.22	2.84 ± 0.31	11.4 ± 1.9	5.29 ± 0.21	11.4 ± 1.2	5.715 ± 0.02	5.49 ± 0.35	11.6 ± 0.23
